This is an account of results in patent US20230028476A1 (EVOTEC INTERNATIONAL, published 2023).

Common to all, as to assay: cell-based or functional assay
For test [1], the target named is T1, human CD40 (human, UniProt P25942 21-277).
Test [2] addresses human IFN receptor on HEK-Blue IFN-λ cells (human).
Test [3] concerns the target T1, human CD40. This is another data set of the same source.
Test [4] has as its target human IFN receptor on HEK-Blue IFN-γ cells (human).
Test [5] shares this target. This is another data set of the same source.

T1 sequence (P25942 21-277): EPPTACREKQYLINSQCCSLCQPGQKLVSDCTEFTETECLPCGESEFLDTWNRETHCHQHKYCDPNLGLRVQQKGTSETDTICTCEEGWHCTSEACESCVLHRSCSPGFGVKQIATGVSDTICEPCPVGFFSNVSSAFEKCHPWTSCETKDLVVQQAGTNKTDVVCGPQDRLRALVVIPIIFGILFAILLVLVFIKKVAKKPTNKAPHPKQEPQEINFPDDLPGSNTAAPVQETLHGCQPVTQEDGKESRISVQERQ

B1: IFA44 (antibody, human IgG2, kappa)
light: DIQMTQSPSSVSASVGDRVTITCRASQGIYSWLAWYQQKPGKAPNLLIYTASTLQSGVPSRFSGSGSGTDFTLTISSLQPEDFATYYCQQANIFPLTFGGGTKVEIKRTVAAPSVFIFPPSDEQLKSGTASVVCLLNNFYPREAKVQWKVDNALQSGNSQESVTEQDSKDSTYSLSSTLTLSKADYEKHKVYACEVTHQGLSSPVTKSFNRGECGGGGSGGGGSGGGGSGGGGSVPVARLHGALPDARGCHIAQFKSLSPQELQAFKRAKDALEESLLLKDCRCHSRLFPRTWDLRQLQVRERPMALEAELALTLKVLEATADTDPALVDVLDQPLHTLHHILSQFRACIQPQPTAGPRTRGRLHHWLYRLQEAPKKESPGCLEASVTFNLFRLLTRDLNCVASGDLCV
heavy: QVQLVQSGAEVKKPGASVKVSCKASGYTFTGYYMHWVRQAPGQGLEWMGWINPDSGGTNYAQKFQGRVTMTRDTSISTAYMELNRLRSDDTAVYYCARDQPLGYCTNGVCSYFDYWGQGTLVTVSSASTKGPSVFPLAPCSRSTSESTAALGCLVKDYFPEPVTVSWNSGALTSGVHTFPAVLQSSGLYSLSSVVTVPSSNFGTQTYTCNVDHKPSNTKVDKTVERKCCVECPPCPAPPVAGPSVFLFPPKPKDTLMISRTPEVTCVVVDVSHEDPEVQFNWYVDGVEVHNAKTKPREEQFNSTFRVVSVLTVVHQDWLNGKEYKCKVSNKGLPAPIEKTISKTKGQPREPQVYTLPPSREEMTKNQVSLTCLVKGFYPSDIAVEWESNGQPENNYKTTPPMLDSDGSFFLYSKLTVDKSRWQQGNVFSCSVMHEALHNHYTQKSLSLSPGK
For the molecule B1, the “CD40 EC50 (HEK-Blue CD40L reporter cells)” value (from here on “CD40 EC50”) in test [1] amounted to 41.4 ng/mL. For the same molecule, the “IFNλ EC50 (HEK-Blue IFNλ reporter cells)” value in test [2] worked out at 0.153 ng/mL.

B2: anti-CD40 antibody 3G5 (Celldex) (antibody, human IgG2, kappa)
heavy: QVQLVESGGGVVQPGKSLRLSCAASGFTFSSNGIHWVRQAPGKGLEWVAVIWSDGSNKFYADSVKGRFTISRDNSKNTLYLQMNSLRAEDTAVYYCARASGSGSYYNFFDYWGQGTLVTVSSASTKGPSVFPLAPCSRSTSESTAALGCLVKDYFPEPVTVSWNSGALTSGVHTFPAVLQSSGLYSLSSVVTVPSSNFGTQTYTCNVDHKPSNTKVDKTVERKCCVECPPCPAPPVAGPSVFLFPPKPKDTLMISRTPEVTCVVVDVSHEDPEVQFNWYVDGVEVHNAKTKPREEQFNSTFRVVSVLTVVHQDWLNGKEYKCKVSNKGLPAPIEKTISKTKGQPREPQVYTLPPSREEMTKNQVSLTCLVKGFYPSDIAVEWESNGQPENNYKTTPPMLDSDGSFFLYSKLTVDKSRWQQGNVFSCSVMHEALHNHYTQKSLSLSPG
light: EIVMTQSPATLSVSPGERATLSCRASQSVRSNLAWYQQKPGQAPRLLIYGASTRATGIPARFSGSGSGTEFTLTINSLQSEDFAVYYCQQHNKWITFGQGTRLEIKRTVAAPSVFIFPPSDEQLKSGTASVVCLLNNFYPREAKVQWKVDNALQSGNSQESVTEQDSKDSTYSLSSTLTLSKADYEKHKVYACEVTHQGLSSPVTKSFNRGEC
Take B2: in test [3], the “mean EC50, CD40 activity (HEK-Blue CD40L reporter cells)” value was 9.3 ng/mL.

B3: IFA43 (antibody, human IgG2, kappa)
heavy: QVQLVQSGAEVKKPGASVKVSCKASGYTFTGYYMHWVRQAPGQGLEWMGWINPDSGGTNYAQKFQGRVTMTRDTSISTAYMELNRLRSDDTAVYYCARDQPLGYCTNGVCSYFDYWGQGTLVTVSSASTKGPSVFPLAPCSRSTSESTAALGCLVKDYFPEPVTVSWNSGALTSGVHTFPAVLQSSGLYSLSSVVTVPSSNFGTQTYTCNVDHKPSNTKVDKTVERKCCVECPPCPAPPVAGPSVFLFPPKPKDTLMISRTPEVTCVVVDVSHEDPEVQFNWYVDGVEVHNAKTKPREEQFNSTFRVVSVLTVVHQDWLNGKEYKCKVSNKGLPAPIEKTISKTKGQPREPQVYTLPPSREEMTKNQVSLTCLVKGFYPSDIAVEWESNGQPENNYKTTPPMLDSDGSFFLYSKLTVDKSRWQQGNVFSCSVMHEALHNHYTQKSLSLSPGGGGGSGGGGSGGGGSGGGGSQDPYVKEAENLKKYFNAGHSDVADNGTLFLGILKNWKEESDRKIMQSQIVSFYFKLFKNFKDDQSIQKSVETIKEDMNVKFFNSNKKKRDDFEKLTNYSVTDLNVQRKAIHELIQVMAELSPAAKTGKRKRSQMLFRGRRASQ
light: DIQMTQSPSSVSASVGDRVTITCRASQGIYSWLAWYQQKPGKAPNLLIYTASTLQSGVPSRFSGSGSGTDFTLTISSLQPEDFATYYCQQANIFPLTFGGGTKVEIKRTVAAPSVFIFPPSDEQLKSGTASVVCLLNNFYPREAKVQWKVDNALQSGNSQESVTEQDSKDSTYSLSSTLTLSKADYEKHKVYACEVTHQGLSSPVTKSFNRGEC
For the molecule B3, the “CD40 EC50” value in test [1] is 50.8 ng/mL. Besides, in test [4], the “IFNγ EC50 (HEK-Blue IFNγ reporter cells)” value is below 0.001 ng/mL. The “IFNγ activity EC50 (HEK-Blue IFNγ reporter cells)” value in test [5] was below 0.01 ng/mL.

B4: IFA45 (antibody, human IgG2, kappa)
heavy: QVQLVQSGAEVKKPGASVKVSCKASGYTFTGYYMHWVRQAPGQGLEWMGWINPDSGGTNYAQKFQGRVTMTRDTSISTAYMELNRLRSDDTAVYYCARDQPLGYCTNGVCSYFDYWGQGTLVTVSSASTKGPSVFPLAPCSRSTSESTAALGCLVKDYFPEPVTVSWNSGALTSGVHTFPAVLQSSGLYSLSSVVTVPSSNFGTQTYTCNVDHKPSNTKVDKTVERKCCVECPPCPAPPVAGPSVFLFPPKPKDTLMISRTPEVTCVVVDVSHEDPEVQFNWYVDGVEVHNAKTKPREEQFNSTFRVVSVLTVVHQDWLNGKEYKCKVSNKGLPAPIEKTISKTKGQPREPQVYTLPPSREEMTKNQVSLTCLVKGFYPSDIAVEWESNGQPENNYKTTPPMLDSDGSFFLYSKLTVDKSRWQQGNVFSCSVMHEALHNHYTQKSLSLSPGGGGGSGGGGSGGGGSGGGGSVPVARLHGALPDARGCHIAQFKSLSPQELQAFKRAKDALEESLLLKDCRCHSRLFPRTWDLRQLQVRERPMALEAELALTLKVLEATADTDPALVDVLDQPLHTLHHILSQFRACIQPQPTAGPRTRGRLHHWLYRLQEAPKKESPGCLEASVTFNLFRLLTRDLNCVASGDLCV
light: B3 light
For the molecule B4, the “CD40 EC50” value in test [1] was 25.8 ng/mL. Further, the “IFNλ EC50 (HEK-Blue IFNλ reporter cells)” value in test [2] is below 0.001 ng/mL.

B5: IFA42 (antibody, human IgG2, kappa)
light: DIQMTQSPSSVSASVGDRVTITCRASQGIYSWLAWYQQKPGKAPNLLIYTASTLQSGVPSRFSGSGSGTDFTLTISSLQPEDFATYYCQQANIFPLTFGGGTKVEIKRTVAAPSVFIFPPSDEQLKSGTASVVCLLNNFYPREAKVQWKVDNALQSGNSQESVTEQDSKDSTYSLSSTLTLSKADYEKHKVYACEVTHQGLSSPVTKSFNRGECGGGGSGGGGSGGGGSGGGGSQDPYVKEAENLKKYFNAGHSDVADNGTLFLGILKNWKEESDRKIMQSQIVSFYFKLFKNFKDDQSIQKSVETIKEDMNVKFFNSNKKKRDDFEKLTNYSVTDLNVQRKAIHELIQVMAELSPAAKTGKRKRSQMLFRGRRASQ
heavy: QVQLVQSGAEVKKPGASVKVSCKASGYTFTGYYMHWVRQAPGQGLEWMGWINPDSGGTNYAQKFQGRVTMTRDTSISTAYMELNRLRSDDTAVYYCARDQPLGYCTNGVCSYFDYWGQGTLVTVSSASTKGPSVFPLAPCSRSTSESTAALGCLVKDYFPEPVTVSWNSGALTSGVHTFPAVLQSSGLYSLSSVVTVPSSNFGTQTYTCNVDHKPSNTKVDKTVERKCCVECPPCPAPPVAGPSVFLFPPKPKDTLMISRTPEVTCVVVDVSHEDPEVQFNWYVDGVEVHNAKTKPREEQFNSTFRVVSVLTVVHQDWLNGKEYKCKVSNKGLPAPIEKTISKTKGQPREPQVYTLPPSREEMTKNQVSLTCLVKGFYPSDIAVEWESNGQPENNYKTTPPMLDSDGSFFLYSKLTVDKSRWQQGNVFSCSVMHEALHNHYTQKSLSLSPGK
In the case of B5, in test [1], the “CD40 EC50” value amounted to 65.6 ng/mL. In test [4], the “IFNγ EC50 (HEK-Blue IFNγ reporter cells)” value is 15.4 ng/mL.
